The target of assay [1] is Dylight488-labeled GluA2 amino terminal domain. The assay is described as follows: AUC; FDS-SV, dilution series of Dylight488-GluA2 ATD, two different runs, global best-fit single component, single class of sites model (Figure 5A); dimer to monomers.
Assay [2] has as its target Alexa Fluor 568-labeled GluA2 amino terminal domain. The assay is described as follows: FRET or BRET; kinetic FRET in a spectrofluorometer, 20°C, excitation 495 nm, emission 603 nm; 50 nM donor-labeled and 50 nM AF568-labeled GluA2 ATD pre-equilibrated (30 min DL488, 60 min FAM), then 1 µM unlabeled GluA2 ATD added; decay fitted with exponential functions. For orientation: Bioluminescence resonance energy transfer reports proximity on the nanometre scale.

For assay [3], the target named is Dylight488-labeled GluA2 amino terminal domain. The assay is described as follows: AUC; fluorescence-detected sedimentation velocity (FDS-SV), dilution series of labeled protein (Figure 3); 50,000 rpm, 20°C; 20 mM Na phosphate pH 7.5, 150 mM NaCl, 1 mM EDTA, 0.1 mg/mL BSA carrier; sw isotherm fitted with a monomer-dimer model; dimer to monomers.
In assay [4] the target is FAM (5,6-carboxyfluorescein)-labeled GluA2 amino terminal domain. The assay is described as follows: AUC; FDS-SV, dilution series of FAM-GluA2 ATD at labeling ratio 1.05 (Figure 4C/D); 20°C, pH 7.5, 0.1 mg/mL BSA; monomer-dimer model; dimer to monomers.
Assay [5] has the same target. The assay is described as follows: AUC; FDS-SV, dilution series of FAM-GluA2 ATD at labeling ratio 1.32, single-component fit excluding the two lowest concentrations and freely adjusting the s-values (Figure 5A, thin blue line); dimer to monomers.
For assay [6] the target is unchanged. The assay is described as follows: AUC; FDS-SV, dilution series of FAM-GluA2 ATD at labeling ratio 1.32 extended to lower concentrations (Figure 5); all fits with s-values constrained to those of Dylight488-GluA2 ATD: single-component fit, and three-component fit with populations of different affinity; dimer to monomers.
Assay [7] shares this target. Nature of the assay: AUC; FDS-SV, dilution series of FAM-GluA2 ATD at labeling ratio 2.26 (Figure 4E/F); 20°C, pH 7.5, 0.1 mg/mL BSA; monomer-dimer model; dimer to monomers.
Assay [8] has the same target. Nature of the assay: AUC; FDS-SV, dilution series of FAM-GluA2 ATD at labeling ratio 0.68 (Figure 4A/B), down to very low concentrations; 20°C, pH 7.5, 0.1 mg/mL BSA; monomer-dimer model; dimer to monomers.
Assay [9] has the same target. The assay is described as follows: AUC; fluorescence-detected sedimentation velocity (FDS-SV), dilution series of labeled protein (Figure 3); 50,000 rpm, 20°C; 20 mM Na phosphate pH 7.5, 150 mM NaCl, 1 mM EDTA, 0.1 mg/mL BSA carrier; sw isotherm fitted with a monomer-dimer model; dimer to monomers.
For assay [10], the target named is GluA2 ATD ATD (Rattus norvegicus) (UniProt P19491). The assay is described as follows: sedimentation velocity AUC (far-UV absorbance). The conditions noted are these: cited from earlier work.
Assay [11] addresses EGFP-GluA2 ATD fusion protein. The assay is described as follows: AUC; FDS-SV, titration series: constant low concentration of labeled protein (1 nM for FAM-GluA2 ATD) with unlabeled GluA2 ATD at a range of concentrations (Figure S1); 20°C, pH 7.5, 0.1 mg/mL BSA; sw isotherm, monomer-dimer model; dimer to monomers.
Assay [12] deals with FAM (5,6-carboxyfluorescein)-labeled GluA2 amino terminal domain. Described as above.
Assay [13] deals with Dylight488-labeled GluA2 amino terminal domain. Described as above.

Here are results for 4 substances from PMC3866193.

Usually Kd stands for the concentration at which binding is half-saturated. As usually defined, the stoichiometry N is the number of molecules, sites or subunits per partner or assembly.

Sequence of GluA2 ATD ATD (P19491 22-400): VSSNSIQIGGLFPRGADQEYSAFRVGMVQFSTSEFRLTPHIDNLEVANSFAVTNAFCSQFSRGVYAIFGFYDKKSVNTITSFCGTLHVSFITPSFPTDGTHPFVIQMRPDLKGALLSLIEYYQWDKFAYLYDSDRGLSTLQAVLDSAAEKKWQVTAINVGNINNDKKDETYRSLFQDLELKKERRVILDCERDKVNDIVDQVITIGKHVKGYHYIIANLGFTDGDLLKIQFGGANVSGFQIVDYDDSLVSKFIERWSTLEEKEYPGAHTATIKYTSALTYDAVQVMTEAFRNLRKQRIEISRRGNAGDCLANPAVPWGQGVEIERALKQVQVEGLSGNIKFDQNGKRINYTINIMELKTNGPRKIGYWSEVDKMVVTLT
Sequence of EGFP-GluA2 ATD fusion protein (P23819 25-404): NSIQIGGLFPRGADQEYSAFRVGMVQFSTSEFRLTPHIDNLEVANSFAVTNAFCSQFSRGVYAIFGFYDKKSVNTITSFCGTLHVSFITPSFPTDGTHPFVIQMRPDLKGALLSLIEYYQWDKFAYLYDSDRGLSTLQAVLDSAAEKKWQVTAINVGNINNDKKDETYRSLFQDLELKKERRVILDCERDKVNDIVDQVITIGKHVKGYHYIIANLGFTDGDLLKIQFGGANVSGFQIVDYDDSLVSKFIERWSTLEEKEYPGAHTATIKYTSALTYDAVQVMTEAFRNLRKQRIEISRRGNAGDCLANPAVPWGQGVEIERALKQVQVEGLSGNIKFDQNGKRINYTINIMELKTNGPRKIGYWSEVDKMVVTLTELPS

In assay [1], “Dylight488-labeled GluA2 amino terminal domain (domain or fragment)” registered a Kd of 19.4 nM. In assay [2], this substance had a half life of the donor/acceptor heterodimer (single-exponential decay) of 2.72 min and a time constant of the decay (single exponential fit, trace shown) of 169 s. In assay [3], this substance came in with a Kd of 20.5 nM and a stoichiometry N of 2.

Turning to “FAM (5,6-carboxyfluorescein)-labeled GluA2 amino terminal domain (domain or fragment)”, in assay [4], the Kd came out at 2.6 nM. In assay [2], this substance came in with a life-time of the donor/acceptor heterodimer, fast component of 95 s; a life-time of the donor/acceptor heterodimer, slow component of 723 s; a time constant of the decay, fast component (double exponential fit, trace shown) of 98 s; a time constant of the decay, slow component (double exponential fit, trace shown) of 640 s. Moreover, the Kd in assay [5] was 4.6 nM. Moreover, in assay [6], the KD of the high-affinity population (three-component fit) turned out to be 1.8 nM, the KD of the low-affinity population (three-component fit) was determined as 24000 nM and the Kd stood at 6.3 nM. Moreover, in [7], the Kd amounted to 4.7 nM. Besides, the Kd in assay [8] was 3.1 nM. In assay [9], this substance registered a Kd of 2.3 nM and a stoichiometry N of 2.

For the substance GluA2 ATD ATD (from UniProt P19491), the Kd in assay [10] is 9.4 nM.

“GluA2 amino terminal domain (GluA2 ATD), unlabeled (domain or fragment)”: the Kd in assay [11] is 22 nM; in assay [12], 9 nM; in [13] it was 16.5 nM.
